Data as given in patent US20160009804A1.

Molecular target: vascular endothelial growth factor receptor-1 (VEGFR-1) (human) (UniProt P17948)
Experiment: cell-based or functional assay

UniProt P17948, sequence (P17948 27-1338): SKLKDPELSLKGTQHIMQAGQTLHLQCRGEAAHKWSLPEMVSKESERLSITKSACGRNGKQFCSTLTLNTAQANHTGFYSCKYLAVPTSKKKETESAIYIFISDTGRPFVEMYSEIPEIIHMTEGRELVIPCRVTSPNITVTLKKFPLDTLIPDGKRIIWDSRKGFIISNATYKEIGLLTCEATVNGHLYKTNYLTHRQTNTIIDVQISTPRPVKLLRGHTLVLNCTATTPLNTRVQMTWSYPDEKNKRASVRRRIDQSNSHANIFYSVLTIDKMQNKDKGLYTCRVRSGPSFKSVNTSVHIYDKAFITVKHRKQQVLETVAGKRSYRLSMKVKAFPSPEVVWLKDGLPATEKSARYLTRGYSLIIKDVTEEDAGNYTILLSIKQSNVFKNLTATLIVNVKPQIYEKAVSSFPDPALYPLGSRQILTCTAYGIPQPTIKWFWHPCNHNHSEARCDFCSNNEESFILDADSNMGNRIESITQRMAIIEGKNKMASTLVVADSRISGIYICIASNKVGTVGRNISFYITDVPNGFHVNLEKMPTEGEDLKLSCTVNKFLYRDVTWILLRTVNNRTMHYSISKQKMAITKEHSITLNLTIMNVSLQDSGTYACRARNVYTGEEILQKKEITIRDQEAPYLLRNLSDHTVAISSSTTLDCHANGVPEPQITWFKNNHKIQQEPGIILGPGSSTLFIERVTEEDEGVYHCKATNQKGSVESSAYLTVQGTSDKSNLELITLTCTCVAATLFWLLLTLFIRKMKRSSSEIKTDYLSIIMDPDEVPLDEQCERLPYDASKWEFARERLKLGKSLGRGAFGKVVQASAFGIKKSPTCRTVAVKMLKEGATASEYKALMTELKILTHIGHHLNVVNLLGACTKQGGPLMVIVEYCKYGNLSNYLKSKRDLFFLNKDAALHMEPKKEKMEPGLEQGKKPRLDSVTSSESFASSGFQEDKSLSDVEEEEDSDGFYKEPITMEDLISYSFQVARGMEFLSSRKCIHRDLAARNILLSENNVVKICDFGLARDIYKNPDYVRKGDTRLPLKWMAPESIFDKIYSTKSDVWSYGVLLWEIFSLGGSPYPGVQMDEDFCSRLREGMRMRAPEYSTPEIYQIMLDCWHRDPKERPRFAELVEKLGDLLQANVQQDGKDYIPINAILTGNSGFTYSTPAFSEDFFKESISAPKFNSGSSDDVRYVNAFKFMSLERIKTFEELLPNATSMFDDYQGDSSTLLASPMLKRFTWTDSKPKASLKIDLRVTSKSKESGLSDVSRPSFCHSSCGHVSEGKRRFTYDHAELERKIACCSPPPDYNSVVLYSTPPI

VEGF-induced CD144 expression (% of cells), isotype control mAb-treated human melanoma cells	VEGF-induced tube formation, average tube length, isotype control mAb-treated	VEGF-induced tube formation, numbers of tubes formed/microscopy field, isotype control mAb-treated (tubes/microscopy field)	VEGF-induced CD144 expression (% of cells), untreated human melanoma cells	VEGF-induced tube formation, average tube length, untreated	VEGF-induced tube formation, numbers of tubes formed/microscopy field, untreated (tubes/microscopy field)	Substance
57%	86.5 µm	76.7				isotype control mAb (antibody)
			64%	92.1 µm	99	vascular endothelial growth factor (VEGF) (from UniProt P15692 27-191) (ligand)
